The values that follow come from US12077763B2, “RNA-based control of powdery mildew” (Greenlight Biosciences, Inc., priority 2021, dated 2024).

For this data set, the system named is E. necator. The data set is described as follows: Leaf disc assay, dry inoculum (settling tower), decrease in disease severity / hyphal growth (Example 2). The following applies: decrease in disease severity (hyphal growth) relative to untreated control, value ± SE; for % decrease =/− SE TP1: time point 1 (untreated control hyphal growth ≥50%); for % decrease =/− SE TP2: time point 2.

B1: GS2656 (nucleic acid)
sense: GCCCGCUUCCUCAGCUAUUCUUGCCUGUUUUGCGUUGACCACAUCCAUAAUUACGCCACCCUUCAACAUGCGAGCCAGGCCGGUUUUGACCCCAAAAUUCUUUUGUCCCACAGGCUUUGAGGUGCCUUUAUUGAUUCCAUUAUUAACGCCACCAUCAGCAGAGACAGGAAUAGGGAUUUCAGUGGCCAUCUUGCAAUUAUCUCAUAAAUAGUGGUAUUAGUUAAGCGCCCGAAGGUUCUUGUCAAAUUCUUCUUGCAAAUAUUAGUAUCAAGAGUUUGCUGAAGAUAUAAAACUAAGAAACGAAUUGUAAUUAACAAAUGGAUUGUAAAAUUUCUCAAAAUGACCGCCUGGUCGAUAUGACUAUGACGUUUAGAGCCAGGAAGUGUUGCAGGAAAAA
antisense: UUUUUCCUGCAACACUUCCUGGCUCUAAACGUCAUAGUCAUAUCGACCAGGCGGUCAUUUUGAGAAAUUUUACAAUCCAUUUGUUAAUUACAAUUCGUUUCUUAGUUUUAUAUCUUCAGCAAACUCUUGAUACUAAUAUUUGCAAGAAGAAUUUGACAAGAACCUUCGGGCGCUUAACUAAUACCACUAUUUAUGAGAUAAUUGCAAGAUGGCCACUGAAAUCCCUAUUCCUGUCUCUGCUGAUGGUGGCGUUAAUAAUGGAAUCAAUAAAGGCACCUCAAAGCCUGUGGGACAAAAGAAUUUUGGGGUCAAAACCGGCCUGGCUCGCAUGUUGAAGGGUGGCGUAAUUAUGGAUGUGGUCAACGCAAAACAGGCAAGAAUAGCUGAGGAAGCGGGC
Take B1: the “% decrease =/− SE TP1” value came out at 34 ± 5% and the “% decrease =/− SE TP2” value was 46 ± 6%.

B2: GS2679 (nucleic acid)
sense: CCGCCAUACUGGGGGAUUAGAACCUUGUCGCCAACCUUGACAUUACAAGACACUCUGUUUCCAUCUUUGCCAACUGCACCAGGUCCUACAGCUAUAACGUGGGCUUCAUUGAGUUCCUUGACACUUUUUUCGGGAAGAAAAAUGCCACUCGCAGUCUUUGCUUCUGCCUUCACUCGUUGUACAAGAACCCGGUCAAGUAAAGGAGCAAGGGACUUGAUUGAUUUGAGUGUUGAAGCCAUGUUAGAGGAUAACGGACAGUGAAUUAUAAAGACUGUGCAAUAAAAUUGGUUUAAGAGAAAAGAUCUUUGAAGUCGCGUUACGUUAAAGUCGCUAUCUGUU
antisense: AACAGAUAGCGACUUUAACGUAACGCGACUUCAAAGAUCUUUUCUCUUAAACCAAUUUUAUUGCACAGUCUUUAUAAUUCACUGUCCGUUAUCCUCUAACAUGGCUUCAACACUCAAAUCAAUCAAGUCCCUUGCUCCUUUACUUGACCGGGUUCUUGUACAACGAGUGAAGGCAGAAGCAAAGACUGCGAGUGGCAUUUUUCUUCCCGAAAAAAGUGUCAAGGAACUCAAUGAAGCCCACGUUAUAGCUGUAGGACCUGGUGCAGUUGGCAAAGAUGGAAACAGAGUGUCUUGUAAUGUCAAGGUUGGCGACAAGGUUCUAAUCCCCCAGUAUGGCGG
Take B2: the “% decrease =/− SE TP1” value stood at 25 ± 3% and the “% decrease =/− SE TP2” value is reported as 24 ± 5%.

B3: GS2674 (nucleic acid)
sense: UUGAGAAAUUAUUUUCUCUUAUAGCGAAUUUGAUUGAGUAUUUUAUGUGAUAUUCACGUUGUUGGACCCUUAUAGAUCUGGGAUUUAGGGUCUUAGAAGACUCGUCUUAAAGCUUGCCCCAACGUAUGAAGUAUUAAAUACGUUACUUUUGAUAUGAAUAUAUUUUUUAUAUACACGAAUUAAUUUAAUCGAAGAGACCAAAGCCCAUAUCUUCAUCAGACUCUUCUUCUUUUUCUUCUU
antisense: AAGAAGAAAAAGAAGAAGAGUCUGAUGAAGAUAUGGGCUUUGGUCUCUUCGAUUAAAUUAAUUCGUGUAUAUAAAAAAUAUAUUCAUAUCAAAAGUAACGUAUUUAAUACUUCAUACGUUGGGGCAAGCUUUAAGACGAGUCUUCUAAGACCCUAAAUCCCAGAUCUAUAAGGGUCCAACAACGUGAAUAUCACAUAAAAUACUCAAUCAAAUUCGCUAUAAGAGAAAAUAAUUUCUCAA
As for B3, the “% decrease =/− SE TP1” value was determined as 17 ± 4% and the “% decrease =/− SE TP2” value amounted to 5 ± 6%.

B4: GS2660 (nucleic acid)
sense: GUCGUAAUGAUCUUGGCCAAUAAUUCGAGGGUCAAGCAUUCGAGAUUUAGACUCAAGGGGAUCUACCGCUGGAUAGAUACCUAAUUCUGAAAUACCACGUGAUAAUACAGUAGUUGCAUCUAAAUGAGCAAACGUUGUUGCGGGUGCUGGAUCCGUCAGAUCAUCAGCUGGCACGUAAACAGCUUGCACUGAAGUGAUUGAGCCUUUGGUAGUUGUUGUAAUUCGCUCUUGCAUAAGACCCAUAUCUACUGCAAGUGUAGGUUGAUAACCAACUGCAGAGGGAAUACGUCCGAGAAGAGCAGAGACUUCGGAGCCGGCCUGAGUGAAACGAAAAAUAUUAUCAAUGAAAAGUAAUACAUCUUGUCCUUCUUCAUCACGGAAAUACUCAGCAAUAGUUA
antisense: UAACUAUUGCUGAGUAUUUCCGUGAUGAAGAAGGACAAGAUGUAUUACUUUUCAUUGAUAAUAUUUUUCGUUUCACUCAGGCCGGCUCCGAAGUCUCUGCUCUUCUCGGACGUAUUCCCUCUGCAGUUGGUUAUCAACCUACACUUGCAGUAGAUAUGGGUCUUAUGCAAGAGCGAAUUACAACAACUACCAAAGGCUCAAUCACUUCAGUGCAAGCUGUUUACGUGCCAGCUGAUGAUCUGACGGAUCCAGCACCCGCAACAACGUUUGCUCAUUUAGAUGCAACUACUGUAUUAUCACGUGGUAUUUCAGAAUUAGGUAUCUAUCCAGCGGUAGAUCCCCUUGAGUCUAAAUCUCGAAUGCUUGACCCUCGAAUUAUUGGCCAAGAUCAUUACGAC
Consider B4, for which the “% decrease =/− SE TP2” value was found to be 24 ± 8%.

B5: GS2655 (nucleic acid)
sense: UGCCAUUCGCGUAUUUUUCUAUUCGAAGACACUCAGUCCUUCAGAGAUUAUUCCAGAAUUGUAUCCUCAAUUACAAUCUUAUUUUUACACAAUACCUCUUUCCCCUAAAUAAAGUACUACAAUGUCAAAUUCCGAAUUAGCAGUUUCGUAUGCUGCCCUUAUCCUCGCAGAUGACGGGGUUGACGUCACAGCAGAUAAGCUACAAUCAUUAAUCAAGGCUGCUGGUAUUGAUGAUGUUGAGCCAAUUUGGACUACUUUAUUUGCCAAGGCUCUCGAUGGCAAAGAUGUGAAAGAUAUGCUCCUGAAUGUAG
antisense: CUACAUUCAGGAGCAUAUCUUUCACAUCUUUGCCAUCGAGAGCCUUGGCAAAUAAAGUAGUCCAAAUUGGCUCAACAUCAUCAAUACCAGCAGCCUUGAUUAAUGAUUGUAGCUUAUCUGCUGUGACGUCAACCCCGUCAUCUGCGAGGAUAAGGGCAGCAUACGAAACUGCUAAUUCGGAAUUUGACAUUGUAGUACUUUAUUUAGGGGAAAGAGGUAUUGUGUAAAAAUAAGAUUGUAAUUGAGGAUACAAUUCUGGAAUAAUCUCUGAAGGACUGAGUGUCUUCGAAUAGAAAAAUACGCGAAUGGCA
B5: the “% decrease =/− SE TP1” value amounted to 26 ± 9% and the “% decrease =/− SE TP2” value turned out to be 9 ± 9%.

B6: GS2666 (nucleic acid)
sense: UUCGGCAUAUCAACGUAAAAAAAAAAUAAAUCGACACAAAACAGCUCAAUACCGUAGUUUAUCACCAUGCUUACAAUUACGUAAACGGAGGUCUGCAAAGAGCCUUAAGUCUUUGGAAAUAUCAUGCAGUAGUGGUAUUGAAAAAGGAACCACUAGCUUCGUAAACUAUACCCCAGAAGAUUCCCAGAAGAUUUUAAAUGGAGUUGCUCCGUCUGGGAGUAACAAGACCAAAGCUCGAAGGGAGAAAGAGGCCUUGGAAAAACGCCAAAAGUUAU
antisense: AUAACUUUUGGCGUUUUUCCAAGGCCUCUUUCUCCCUUCGAGCUUUGGUCUUGUUACUCCCAGACGGAGCAACUCCAUUUAAAAUCUUCUGGGAAUCUUCUGGGGUAUAGUUUACGAAGCUAGUGGUUCCUUUUUCAAUACCACUACUGCAUGAUAUUUCCAAAGACUUAAGGCUCUUUGCAGACCUCCGUUUACGUAAUUGUAAGCAUGGUGAUAAACUACGGUAUUGAGCUGUUUUGUGUCGAUUUAUUUUUUUUUUACGUUGAUAUGCCGAA
With B6, the “% decrease =/− SE TP1” value worked out at 14 ± 7%.

B7: ES48: dsRNA trigger SEQ ID NO 111; gene target Hypotethical effector (nucleic acid)
DNA: AGTAGCAGCGGACATCGCCGACGGCCCTACACTGTCAGGGCTACCTGGGGTTGCAGATTTCGACTTGTCTTCAGCGTCCTCCCCAAGTCTCGAGAAAAGACTTTGTTTTAGACGAGGATGCAATAAAAAATCTAAACACGCATCAGGCTTCCAATGTAAGAAGAAACATTTCAGTCTGGCGGCGGTAGAAAAAGCAAAAGCCGTAGCCTGCGCAAAGATCAAAGAAAACAAGCAGCGCAATGCCTTTCCTGCTCTTTACACCGCAACCGATTTCGAAACTCCCGGGCCTTATCTAGAATGGCCAATCAAGCGCAATGGAAGATTTTGGAATAATTTGAGAAGAGGCCGTTACCGCATCATCCTAACCGAAAACTGCAAAGTTGTCGGTGCTGTGATCCGGAAAAGCAATGGTTCATACCGCACATGCAAGAAACTGAGCGAAAAAGATGAAGATGAAGTTGATGATGATGATGAAAAAGAA
Turning to B7, the “% decrease =/− SE TP1” value worked out at 15 ± 6% and the “% decrease =/− SE TP2” value was 1 ± 3%.

B8: GS2668 (nucleic acid)
sense: UUCCUAGUCAAACGUGCAUCUAGUGGAGGUGUACAAUUUUCUCGUGAUCCCCUAAACUUAACAAAUGUGCAUUCUCGCAAAUAUGCCGGAUUUGUUAACGAUAAGGCUGUCGGAAUUCUUCCCAUUGAAGGUGGUAAAGGAGGUAUUACUUUGAUCACCAAAAAAACUAAAUUUACCCAAAAACCUUCUAGCGCCAUAUACACAACAGUUUUUGGUGGUAAUAAAACUUCAAGACGGACAUAUAAGGGGGUUGUCAAUACUGUUGUCAAAUCAAGAUAUCGAUCUGAUCUUCGUGCUGAAGCUGUUGCUCGUGCGUCUGCUAUUCGGUACUCGCAAAAACCAAAGGGUGAUCUUCCUAAGAAGAAAUUGCGUGGAUCAAAAGCUAAAAAGG
antisense: CCUUUUUAGCUUUUGAUCCACGCAAUUUCUUCUUAGGAAGAUCACCCUUUGGUUUUUGCGAGUACCGAAUAGCAGACGCACGAGCAACAGCUUCAGCACGAAGAUCAGAUCGAUAUCUUGAUUUGACAACAGUAUUGACAACCCCCUUAUAUGUCCGUCUUGAAGUUUUAUUACCACCAAAAACUGUUGUGUAUAUGGCGCUAGAAGGUUUUUGGGUAAAUUUAGUUUUUUUGGUGAUCAAAGUAAUACCUCCUUUACCACCUUCAAUGGGAAGAAUUCCGACAGCCUUAUCGUUAACAAAUCCGGCAUAUUUGCGAGAAUGCACAUUUGUUAAGUUUAGGGGAUCACGAGAAAAUUGUACACCUCCACUAGAUGCACGUUUGACUAGGAA
Regarding B8, the “% decrease =/− SE TP1” value amounted to 46 ± 3% and the “% decrease =/− SE TP2” value came to 38 ± 4%.
